The values that follow come from article PMC6901522.

Holding throughout (test): NMR
Holding throughout (conditions): 298 K, 150 mM NaCl, 10 mM acetic acid, 10 mM sodium phosphate, the pH 7.4 point was taken from a sample in TBS, folded, oxidised (C63-C92 disulfide), ligand-free monomer, 215-356 µM protein

Data set [1] concerns the target His49 (UniProt position 49, PGGVVHSFSHN).
Data set [2] has as its target His53 (UniProt position 53, VHSFSHNVGPG).
For data set [3], the target named is His87 (UniProt position 87, GTSEDHQHFTC).
Data set [4] has as its target His89 (UniProt position 89, SEDHQHFTCTI).

As usually defined, the pKa is the pH at which an ionisable group is half protonated. “Myeloid-derived growth factor (hMYDGF, C19orf10) (Homo sapiens)”: the pKa was found to be 6.4 in data set [1], 5.4 in data set [2], 6.0 in data set [3] and 6.8 in data set [4].
